According to PMC6821881 (2019):
Where a chain is given by its changes, count along the chain named.

B1: 2L-1 (antibody, V domains shown)
VH: EVQLVQSGAEVKKPGASVKVSCKASGYTFTSGHTFPSYDINWVRQATGQGLEWMGWMNPNRGNTGYAQKFQGRVTMTRNTSINTAYMELSSLRSEDTAVYYCARVRSGTNYGSYYYYYYGMDVWGQGTTVTVSS
VL: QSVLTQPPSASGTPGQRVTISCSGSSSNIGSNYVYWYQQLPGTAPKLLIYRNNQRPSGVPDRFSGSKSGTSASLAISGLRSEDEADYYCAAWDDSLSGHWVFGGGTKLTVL
B2: 2L-2 (antibody, V domains shown)
VH: B1 VH
VL: QSVLTHRPSASGHPGQRVTISCSGSSSNIGNNYVYWYQQLPGTAPKLLIYRNNQRPSGVPDRFSGSKSGTSASLAISGLRSEDEADYYCAAWDDSLSGHWVFGGGTKLTVL
B3: 2L-9 (antibody, V domains shown)
VH: B1 VH
VL: B2 VL with Q1S, H6Q, R7P, H13T, S27T, N31S, V34A, Q39Y, S66F, I76V
B4: 2L-6 (antibody, V domains shown)
VH: B1 VH
VL: SVLQPQPPSASRHPGQRVTISCLHGSSSNIGNNYVSWYQQLPGTDPKLLIYRNNHAASGVPDRFSGSKSGTSASLAISGLRSEDEADYYCAAWDDSLSGHWVFGGGTKLTVL
B5: 2L-3 (antibody, V domains shown)
VH: B1 VH
VL: B2 VL with H13T, N31S, V34G
B6: ZK2B10 (antibody, V domains shown)
VH: B1 VH
VL: SYELTQPPSASGTPGQRVTISCSGSSSNIGNNYVHWYQQLPGSAPKLLIYRNNQRPSGVPDRFSGSKSGTSGSLAISGLRSEDEADYYCASWDDSLSGHWVFGGGTKVTVL
B7: 2L-8 (antibody, V domains shown)
VH: B1 VH
VL: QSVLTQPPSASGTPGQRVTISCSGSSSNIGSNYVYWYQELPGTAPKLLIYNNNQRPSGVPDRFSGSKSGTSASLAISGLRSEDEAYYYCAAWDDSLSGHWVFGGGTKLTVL
B8: 2L-11 (antibody, V domains shown)
VH: B1 VH
VL: B2 VL with Q1Y, H6D, R7H, H13T, N31S, Q39E, R51N, D86Y
B9: 2H-15 (antibody, V domains shown)
VH: EVQLVQSGAEVKKPGASVKVSCKASGYTFTSYDVNWVRQATGQGLEWMGWMNPNSGNTGYAQKFQGRVTMTRNTSISTAYMELSSLRSEDTAVYYCARVSSGSYYGSYYYYYYGMDVWGQGTTVTVSS
VL: B6 VL
B10: 2H-9 (antibody, V domains shown)
VH: B9 VH with A9G, E10K, K12V, K13E, P14L, S31T, V34I
VL: B6 VL
B11: 2H-16 (antibody, V domains shown)
VH: B9 VH with E1Q, V34I, Y60C
VL: B6 VL
B12: 2H-5 (antibody, V domains shown)
VH: B9 VH with E1Q, K19N, S31M, V34I, A40T
VL: B6 VL
B13: 2H-10 (antibody, V domains shown)
VH: B9 VH with E1Q, A9V, K19E, K23Q, Y27I, F29S, V34I, T41N
VL: B6 VL
B14: 2H-6 (antibody, V domains shown)
VH: B9 VH with M51L, Q62E
VL: B6 VL
B15: 2H-3 (antibody, V domains shown)
VH: B9 VH with E1Q, A9R, D33E, V34I
VL: B6 VL
B16: 2H-4 (antibody, V domains shown)
VH: B9 VH with E1Q, A9R, A24G, V34I, T41P, E89G
VL: B6 VL
B17: 2H-2 (antibody, V domains shown)
VH: QVQLVQSGAEVKKPGSSVKVSCKASGGTFSSYAISWVRQATGQGLEWMGGIIPIFGTANYAQKFQGRVTITADESTSTAYMELSSLRSEDTAVYYCARVSSGSYYGSYYYYYYGMDVWGQGTTVTVSS
VL: B6 VL
B18: 2H-14 (antibody, V domains shown)
VH: B9 VH with E1Q, Q3H, L4A, D33G, V34I
VL: B6 VL
B19: 2H-1 (antibody, V domains shown)
VH: B9 VH with E1Q, V34I
VL: B6 VL

Key:
[1] = biological target: ZIKV E protein (GZ01) (Zika virus (strain GZ01)); experiment: ELISA
[2] = biological target: T1, ZIKV E DIII protein (residues 301-403) (Zika virus (strain GZ01)); experiment: ELISA
T1 chain: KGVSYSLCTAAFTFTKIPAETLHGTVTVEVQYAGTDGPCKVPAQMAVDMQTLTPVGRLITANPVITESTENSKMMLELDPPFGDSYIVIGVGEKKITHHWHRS

Binder	EC50 [1] [ng/mL]	EC50 [2] [ng/mL]
B1	> 500	> 500
B2	216	267
B3	> 500	> 500
B4	356	335
B5	> 500	> 500
B6	3.3	7.1
B7	> 500	> 500
B8	> 500	> 500
B9	7.5	10
B10	4.2	5.9
B11	5.8	4.1
B12	6.2	4.8
B13	5.2	11.2
B14	4.6	3.9
B15	23.7	39
B16	6.5	8.4
B17	> 500	> 500
B18	242	215
B19	5.3	3.4
